Assay results taken from patent publication US20240141038A1 (SHANGHAI QILU PHARMACEUTICAL RESEARCH AND DEVELOPMENT CENTRE, published 2024).
Positions count from the first letter of the chain named. Each block holds one binder with its values, some of them ahead of it.

Legend:
[1] = biological target: T1, Human NKp46 antigen for immunization, screening, and testing (Kactus, NKP-HM146) (human, UniProt O76036 22-255); assay: ELISA, coated antigen, VHH supernatant, anti-Myc HRP
T1 construct: Bought protein; also called human NKp46 antigen protein; human NKp46 protein
T1 sequence (O76036 other isoform, or with tags, fused parts or gaps limits assumed): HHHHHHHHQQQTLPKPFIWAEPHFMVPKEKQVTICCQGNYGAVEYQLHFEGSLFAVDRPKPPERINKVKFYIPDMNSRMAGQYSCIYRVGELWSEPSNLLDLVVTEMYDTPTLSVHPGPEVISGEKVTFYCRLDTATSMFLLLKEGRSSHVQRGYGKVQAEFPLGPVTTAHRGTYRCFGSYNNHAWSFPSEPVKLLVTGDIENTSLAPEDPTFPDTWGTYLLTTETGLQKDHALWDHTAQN
Protocol: (§1) In order to obtain positive antibodies that can cross-bind to human NKp46 and cynomolgus monkey NKp46, the above libraries were amplified and added into M13K07 helper phage and assembled into bacteriophages. 1×10¹² pfu of immune camel antibody library and immune alpaca antibody library were added thereto, and the phages were incubated with biotinylated human NKp46 protein (8 μg/mL) bound to magnetic beads for 1 h at room temperature. After washing off the unbound bacteriophages with 0.05% PBST, the phages specifically bound to NKp46 were eluted with […] triethylamine, and after gradient dilution of the bacteriophages above, E. coli SS320 in the logarithmic growth phase were infected. After being cultured overnight at 37° C. on plates containing ampicillin, single-clone was picked for IPTG-induced expression, and the supernatant was used for ELISA assay. ELISA plates were coated with […] human NKp46 antigen or cynomolgus monkey NKp46 antigen overnight at 4° C., then washed 3 times with 0.05% PBST and blocked with 5% skim milk at room temperature for 1 h, and washed 3 times with 0.05% PBST. Then 30 µL of induced supernatant was then added into per well, medium were added to negative control wells, the ELISA plates were incubated at room temperature for 1 h, and finally detected with anti-Myc HRP (VHH with his and c-Myc labels were expressed by the induction of IPTG. Sequence clones that had OD450 values of greater than 1.0 for binding to human NKp46 and cynomolgus monkey NKp46 as determined by ELISA, and of which the ratio of OD450 values to that of negative control were greater than 3 were sequenced, thereby obtaining amino acid sequences of 30 variable regions of heavy chain antibodies disclosed in the present disclosure, as shown in Table 2.

[2] = biological target: T2, Cynomolgus monkey NKp46 for immunization, screening, and testing (Kactus, NKP-CM146) (cynomolgus monkey, UniProt Q95JB9 22-254); assay: as above
T2 construct: Bought protein; also called monkey NKp46 antigen protein; cynomolgus monkey NKp46 antigen
T2 sequence (Q95JB9 other isoform, or with tags, fused parts or gaps limits assumed): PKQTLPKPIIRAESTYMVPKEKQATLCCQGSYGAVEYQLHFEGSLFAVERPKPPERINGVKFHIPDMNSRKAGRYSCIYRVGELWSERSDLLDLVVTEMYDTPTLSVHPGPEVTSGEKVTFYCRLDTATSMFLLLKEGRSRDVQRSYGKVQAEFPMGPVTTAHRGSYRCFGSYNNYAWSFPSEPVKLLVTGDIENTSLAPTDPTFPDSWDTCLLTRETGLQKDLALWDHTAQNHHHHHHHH
Protocol: as §1

OD450 [1]: > 1
ratio of OD450 to negative control [1]: > 3
OD450 [2]: > 1
ratio of OD450 to negative control [2]: > 3
B1: NKp46-PA15 VHH (his and c-Myc labels) (VHH)
VHH: QVQLVESGGGLVQAGDSLRVSCAASGRTFSTYAMGWFRQAPGKEREFVAASSRDGTTTYYADSVKGRFTISRDNAKNTVYLQMNSLKPEDTAVYYCAASRPLSTTQVGIASAWYEYWGQGTQVTVSS
notes: IPTG-induced E. coli supernatant used in the screening ELISA; also called NKp46-PA15 clone supernatant; not shown: his and c-Myc labels

OD450 [1]: > 1
ratio of OD450 to negative control [1]: > 3
OD450 [2]: > 1
ratio of OD450 to negative control [2]: > 3
B2: NKp46-PA19 VHH (his and c-Myc labels) (VHH)
VHH: QVQLVESGGGLVQPGGSLRLACAASGRTFSTYAMGWFRQAPGKEREFVAAISRNGGTTYYADSVKGRFTISRDNAKNTVYLQMNSLKPEDTAVYYCAASRPLSNTQVGVASAWYEFWGQGTLVTVSS
notes: IPTG-induced E. coli supernatant used in the screening ELISA; also called NKp46-PA19 clone supernatant; not shown: his and c-Myc labels

OD450 [1]: > 1
ratio of OD450 to negative control [1]: > 3
OD450 [2]: > 1
ratio of OD450 to negative control [2]: > 3
B3: NKp46-PA24 VHH (his and c-Myc labels) (VHH)
VHH: QVQLVESGGGQVQAGGSLRLSCVASGRTYSIYGMGWFRQAPGKEREVVAAINWSSGHTYYADSVKGRFTISKDNAKNTHYLQMNSLKPEDTAVYYCAADSIYGLSFTVKDYDYWGQGTLVTVSS
notes: IPTG-induced E. coli supernatant used in the screening ELISA; also called NKp46-PA24 clone supernatant; not shown: his and c-Myc labels

OD450 [1]: > 1
ratio of OD450 to negative control [1]: > 3
OD450 [2]: > 1
ratio of OD450 to negative control [2]: > 3
B4: NKp46-PA29 VHH (his and c-Myc labels) (VHH)
VHH: B3 VHH with Q11W, A14P, V23A, V47I, S54N, K72R, Y102I, L119Q
notes: IPTG-induced E. coli supernatant used in the screening ELISA; also called NKp46-PA29 clone supernatant; not shown: his and c-Myc labels

OD450 [1]: > 1
ratio of OD450 to negative control [1]: > 3
OD450 [2]: > 1
ratio of OD450 to negative control [2]: > 3
B5: NKp46-PA11 VHH (his and c-Myc labels) (VHH)
VHH: DVQLVESGGGLVQAGGSLRLSCAASGHTESWYRMGWFRQAPGKGREVVGRISGSPGILYYAGSVKGRFTISRDNAKNTLYLQMTNLKPEDTARYYCAADRTGATWDYWGQGTQVTVSS
notes: IPTG-induced E. coli supernatant used in the screening ELISA; also called NKp46-PA11 clone supernatant; not shown: his and c-Myc labels

OD450 [1]: > 1
ratio of OD450 to negative control [1]: > 3
OD450 [2]: > 1
ratio of OD450 to negative control [2]: > 3
B6: NKp46-PA27 VHH (his and c-Myc labels) (VHH)
VHH: B5 VHH with G16A, H27R, G49A, S54D, P55T, G56N, L58K
notes: IPTG-induced E. coli supernatant used in the screening ELISA; also called NKp46-PA27 clone supernatant; not shown: his and c-Myc labels

OD450 [1]: > 1
ratio of OD450 to negative control [1]: > 3
OD450 [2]: > 1
ratio of OD450 to negative control [2]: > 3
B7: NKp46-PA28 VHH (his and c-Myc labels) (VHH)
VHH: QVQLVESGGGLVQAGDSLRLSCVASGRTFSTYAMGWFRQAPGKEREFVAAISRNADTTYYADSVKGRFTISRDNAKNTVYLQMNSLKPEDTAVYYCAADRYSSNTQVGVARTYYDYWGQGTQVTVSS
notes: IPTG-induced E. coli supernatant used in the screening ELISA; also called NKp46-PA28 clone supernatant; not shown: his and c-Myc labels

OD450 [1]: > 1
ratio of OD450 to negative control [1]: > 3
OD450 [2]: > 1
ratio of OD450 to negative control [2]: > 3
B8: NKp46-PA26 VHH (his and c-Myc labels) (VHH)
VHH: QVQLVESGGGMVQAGGSLRLSCAASGRTFNTIHWFRQAPGKEREFVARIWWIGGATFYADSVKGRFTISRDNTENLVYLQMNSLKPEDTAVYYCAADARYTSHGYYESDYWGPGTQVTVSS
notes: IPTG-induced E. coli supernatant used in the screening ELISA; also called NKp46-PA26 clone supernatant; not shown: his and c-Myc labels
